# B1: VCAM-Ig: recombinant VCAM-1 Ig fusion, R&D Systems (protein)
# chain: FKIETTPESRYLAQIGDSVSLTCSTTGCESPFFSWRTQIDSPLNGKVTNEGTTSTLTMNPVSFGNEHSYLCTATCESRKLEKGIQVEIYSFPKDPEIHLSGPLEAGKPITVKCSVADVYPFDRLEIDLLKGDHLMKSQEFLEDADRKSLETKSLEVTFTPVIEDIGKVLVCRAKLHIDEMDSVPTVRQAVKELQVYISPKNTVISVNPSTKLQEGGSVTMTCSSEGLPAPEIFWSKKLDNGNLQHLSGNATLTLIAMRMEDSGIYVCEGVNLIGKNRKEVELIVQEKPFTVEISPGPRIAAQIGDSVMLTCSVMGCESPSFSWRTQIDSPLSGKVRSEGTNSTLTLSPVSFENEHSYLCTVTCGHKKLEKGIQVELYSFPRDPEIEMSGGLVNGSSVTVSCKVPSVYPLDRLEIELLKGETILENIEFLEDTDMKSLENKSLEMTFIPTIEDTGKALVCQAKLHIDDMEFEPKQRQSTQTLYVNVAPRDTTVLVSPSSILEEGSSVNMTCLSQGFPAPKILWSRQLPNGELQPLSENATLTLISTKMEDSGVYLCEGINQAGRSRKEVELIIQVTPKDIKLTAFPSESVKEGDTVIISCTCGNVPETWIILKKKAETGDTVLKSIDGAYTIRKAQLKDAGVYECESKNKVGSQLRSLTLDVQGRENNKDYFSPE
# modifications: left off: Ig (Fc, from the name VCAM-Ig), end not stated, kept
# notes: recombinant VCAM-1 Ig fusion, R&D Systems
# Experiments:
# ⍺4β7 on RPMI8866 cells [1] = test: Flow cytometry: D1D2-Ig⍺tp staining of RPMI8866 cells with ⍺4 and β7 antagonists; type: binding, human; settings: antagonist at 10 μg/ml, 1 mM MnCl2
# From the text: (§1) Several mAbs and small molecule antagonists of ⍺4β7 and ⍺4β1 have been developed to treat diseases, including IBD and MS. […] Vedolizumab and etrolizumab are β7 mAbs, based on murine mAbs Act-1 and FIB504, respectively. Both are used to treat IBDs, [50, 51]. Natulizumab is an ⍺4 specific humanized version of the mouse mAb HP2/1 used to treat Multiple Sclerosis (MS). […] To determine whether these antagonists block CD4 binding to α4β7, we stained RPMI8866 cells with D1D2-Ig⍺tp in the absence or presence of increasing concentrations of each (Fig 3).
# (§2) Y-axis indicates gMFI. Dashed and solid lines represent gMFI of D1D2-Ig⍺tp and MAdCAM-Ig respectively, in the absence of any antagonist.
# (§3) Cells were stained with fluoresceine conjugated mAbs or recombinant proteins using standard procedures preceded by Fc receptor blocking with human IgG. Buffers used were 10 mM HEPES 150 mM NaCl (HBS Buffer) with 100 μM CaCl2. 1 mM MnCl2 was also included, unless otherwise specified.
# ⍺4β7 on RPMI8866 cells [2] = test: Flow cytometry: MAdCAM-Ig staining of RPMI8866 cells with ⍺4 and β7 antagonists; type: binding, human; settings: antagonist at 1 μg/ml
# From the text: as §1, §2, §3
# [3] = system: ⍺4β7 on primary CD8^+ T cells; test: Flow cytometry: FAM-conjugated pCD4^165-178 binding to RA-treated primary CD8^+ T cells; design: species or system human; settings: FAM-Ttds-labelled peptide 1.25 μg/200,000 cells in 100 μl; MnCl2; 3 independent experiments
# From the text: To further investigate the interaction between pCD4^165-178 and ⍺4β7 we attached a fluorescein dye to its amino terminus via a trioxatridecan-succinamic acid (Ttds) linker (Fig 5A). A scrambled pCD4^165-178 was employed as a control. […] FIB504 and vedolizumab inhibited binding by ~50%. This inhibition pattern resembles the one we obtained when inhibiting D1D2-Ig⍺tp with the same antagonists (Fig 3). We conclude that the CD4 D2 G β-strand binds directly to the headpiece region of ⍺4β7 in a cation dependent manner. Support for this conclusion, in the form of site directed mutagenesis within the D2 G β-strand is provided below.
# Fig 5 Direct binding of pCD4^165-178 to ⍺4β7 on primary T cells. (A) Sequence of FAM -conjugated pCD4^165-178 and a scrambled derivative (FAM-scr pCD4^165-178). (B) Flow-cytometry derived histogram of pCD4^165-178 binding to RA -cultured CD8^+ T cells. pCD4^165-178 in the presence (green), or absence of Mn^++(black). Unstained cells are shown (grey). (C) Binding of pCD4^165-178 and its scrambled derivative to CD8^+ T cells in the presence of MnCl2 as in panel B, and in the presence of ⍺4 and ⍺4β7 antagonists, as indicated. Y-axis indicates % cells bound. Error bars represent standard error from 3 independent experiments.
# Cells were stained with fluoresceine conjugated mAbs or recombinant proteins using standard procedures preceded by Fc receptor blocking with human IgG. Buffers used were 10 mM HEPES 150 mM NaCl (HBS Buffer) with 100 μM CaCl2. 1 mM MnCl2 was also included, unless otherwise specified. Buffer without divalent cations included 0.1 mM EDTA. Unlabeled mAb or protein inhibitors were preincubated with cells or proteins at a 5X molar excess for 15 min on ice. FAM labeled peptides were used at 1.25 μg/ 200,000 cells in a 100 μl volume. Data were acquired using a FACSCanto II (BD Biosciences) and analyzed with FlowJo software (BD Biosciences). Plotted MFI values represent absolute values.
# CD4 D1D2 = test: SPR cross-inhibition: ⍺4β7 binding to immobilized CD4 D1D2 after preincubation of the surface with CD4 mAbs; settings: surface preincubated with mAb, Fig 8C
# From the text: Fig 8 Mutating a gp120 contact site in CD4 D1 abrogates CD4-⍺4β7 interactions. (A) Positions of amino acid substitutions introduced into D1D2-Ig⍺tp are indicated on a space-filling model of CD4 D1D2. Substitutions at S42/F43 in D1 (green) and K171 in D2 (purple) are shown. Approximate locations of mAb Leu3A and ibalizumab epitopes are indicated. (B) Flow-cytometric analysis of increasing amounts of D1D2-Ig⍺tp and mutant derivatives binding to ⍺4β7 on CD8^+ T cells. Y-axis indicates % cells bound. (C) SPR analysis of soluble ⍺4β7 binding to a D1D2 coated surface following preincubation of the surface with ibalizumab (red), mAb Leu3A (light green), or ⍺4β7 (dark green). Y-axis indicates the mass of soluble ⍺4β7 bound at the end of the association phase. Mass of prebound inhibitors is subtracted. (D) Flow-cytometric analysis of unlabeled gp120 inhibiting PE labeled D1D2-Ig⍺tp binding to ⍺4β7 on CD8^+ T cells. The integrin ⍺4 antagonist FG was employed as a control. Y-axis indicates MFI.
# Experiments were performed using a Biacore 3000 instrument (Cytiva Life Sciences) using CM4 or CM5 sensor chips. The data were evaluated using BIAevaluation 4.1.1 software (Cytiva Life Sciences). […] The ability of each analyte to inhibit either itself or ⍺4β7 was determined by comparing the binding of ⍺4β7 in the absence or presence of the listed pre-bound analytes as previously described. […]
# ⍺4β7 = test: SPR binding kinetics: recombinant ⍺4β7 passed over ligand-coated surfaces (S1 Table); settings: SPR Biacore 3000, ligand immobilized, ⍺4β7 analyte, HBS pH 7.4, 1 mM MnCl2, 25°C
# Procedure: To measure the specific affinity of CD4–⍺4β7 interactions we developed a surface plasmon resonance (SPR) -based assay in which recombinant ⍺4β7 was passed over a surface coated with a 23 kD D1D2 protein (aa 1–183). For comparison we prepared surfaces with recombinant MAdCAM-Ig, VCAM-Ig, monomeric gp120, and a SOSIP env trimer (S1 Table). Assays were carried out in the presence of MnCl2 to present ⍺4β7 in an active conformation. […] This rate of dissociation was similar to that of both MAdCAM-Ig and VCAM-Ig with ⍺4β7 and is indicative of a relatively high-affinity interaction.
# Experiments were performed using a Biacore 3000 instrument (Cytiva Life Sciences) using CM4 or CM5 sensor chips. The data were evaluated using BIAevaluation 4.1.1 software (Cytiva Life Sciences). The chip surface was activated by injecting 35 μl of a 1:1 mixture of 0.05 M N-hydroxysuccinimide and 0.2 M N-ethyl-N-(dimethylaminopropyl) carbodiimide at 5 μl/min. NeutrAvidin, HIV gp120, sCD4 (D1D2) or Hu-MAdCAM-Ig (R&D Systems) at concentrations of 5 μg/ml in 10mM NaOAc, pH 4.5, were immobilized to 250–750 resonance units (RU). After the proteins were immobilized to the desired densities, unreacted sites were blocked with 35 μl of 1 M Tris-HCl (pH 8.0). Biotinylated cyclic V2 peptides (1 μg/ml in 20 mM Tris-HCl, pH 8.0) were bound to the NeutrAvidin surfaces to densities of approximately 250–300 RU. One surface was activated and blocked without ligand as a control surface for non-specific binding. Signal from the control surface was subsequently subtracted. Running buffer was HBS (pH 7.4), 1 mM MnCl2, 0.005% Tween- 20, 0.05% soluble carboxymethyl-dextran. Binding experiments were carried out at a flow rate of 25 μl/min at 25°C. After a 2 min injection, the surface was washed for an additional 2 min in running buffer allowing dissociation of the bound ligand from the surface. The surfaces were regenerated by multiple injections of 4.5 M MgCl2 at a flow rate of 100 μl/min. Inhibition of ⍺4β7 binding by linear V2-loop and CD4 derived peptides was carried out by pre-incubating ⍺4β7 with the peptides in running buffer at the indicated concentrations for 2 hours at room temperature prior to passing them over the prepared surfaces as described above. Cross-inhibition experiments were performed by passing either buffer or the listed analytes over a surface to which sCD4 (D1D2) had been immobilized, followed by a secondary sequential injection of ⍺4β7. The ability of each analyte to inhibit either itself or ⍺4β7 was determined by comparing the binding of ⍺4β7 in the absence or presence of the listed pre-bound analytes as previously described. Illustration of the dynamic range of range of linear peptide inhibition assays is provided in S4 Fig.
# ⍺4β7 on RPMI8866 cells [4] = test: Flow cytometry: ligand staining of ⍺4β7-expressing cells in buffers with different divalent cations; type: binding, human; settings: absence of divalent cations (0.1 mM EDTA)
# From the text: Fig 1 Binding of soluble CD4 to ⍺4β7 on CD4^+ T cells. (A) Schematic of D1D2-Ig⍺tp. (B) Flow-cytometry histogram of PE-conjugated D1D2-Ig⍺tp staining of CD4^+ T cells alone (blue) or in the presence of either the anti ⍺4 mAb 2B4 (green) or an irrelevant mAb (black-dashed). Cells stained with PE-conjugated MicA-Ig⍺tp (red), along with unstained cells (grey) are included. X-axis indicates geometric mean fluorescence intensity (gMFI). (C) 293T cells untransfected or co-transfected with ⍺4 and β7 expression vectors stained with either PE-D1D2-Ig⍺tp or PE-MAdCAM-Ig in the absence or presence of the ⍺4 antagonist FG. Y-axis indicates gMFI. (D) CD4^+ T cells stained with anti CD45RO (x-axis) anti β7 (y-axis) (left), or with anti CD45RO (x-axis) and D1D2-Ig⍺tp (y-axis) (right). % cells in each quadrant, as indicated. (E) CD4^+ T cells stained as in B, with lower MW forms of oligomerized D1D2-Ig⍺tp. Left Y-axis indicates gMFI (bars), right Y-axis indicates relative MW (kDa) (•). […]
# (§4) Cells were stained with fluoresceine conjugated mAbs or recombinant proteins using standard procedures preceded by Fc receptor blocking with human IgG. […] Data were acquired using a FACSCanto II (BD Biosciences) and analyzed with FlowJo software (BD Biosciences). […]
# ⍺4β7 on RPMI8866 cells [5] = test: Flow cytometry: cross-inhibition of MAdCAM-Ig, VCAM-Ig and D1D2-Ig⍺tp binding to RPMI8866 cells; design: species or system human; settings: increasing concentrations of unlabeled inhibitor, Fig 2C, 2D
# Procedure: Cis interactions between various integrins and leukocyte receptors are known to regulate immune cell functions. To determine whether CD4 inhibits MAdCAM-1 or VCAM-1 binding to ⍺4β7 we preincubated RPMI8866 cells with labelled MAdCAM-Ig or VCAM-Ig in the presence of increasing concentrations of unlabeled D1D2-Ig⍺tp. […] This implies that MAdCAM-1 and VCAM-1, acting in trans, may interfere with CD4-⍺4β7 interactions. What remains unknown is whether interactions between ⍺4β7 and CD4 impact CD4 migration into the TCR and subsequent interactions with MHC II (Fig 2E).
# Fig 2 Cross-inhibition of MAdCAM-Ig, VCAM-Ig and D1D2-Ig⍺tp binding to ⍺4β7. Flow cytometric analysis of (A) PE -conjugated MAdCAM-Ig or (B) PE -conjugated VCAM-Ig binding to RPMI8866 cells pre-incubated with increasing concentrations of unlabeled D1D2-Igαtp. Cell preincubated with increasing concentrations of (C) unlabeled MAdCAM-Ig or (D) VCAM-Ig followed by PE -conjugated D1D2-Ig⍺tp. Y-axis indicates gMFI. Dashed line indicates gMFI in the absence of any inhibitor.
# as §4, with “IgG. Buffers used were 10 mM HEPES 150 mM NaCl (HBS Buffer) with 100 μM CaCl2.” for “IgG.”
molecule,measurement,setting,value
Vedolizumab: β7 mAb based on murine mAb Act-1,reduction of D1D2-Ig⍺tp binding,⍺4β7 on RPMI8866 cells [1],~ 50%
same,inhibition of MAdCAM-Ig binding (in words),⍺4β7 on RPMI8866 cells [2],blocked MAdCAM-Ig efficiently
same,reduction of pCD4^165-178 binding to CD8^+ T cells,[3],~ 50%
Ibalizumab: CD4 D2 mAb,inhibition of ⍺4β7 binding to surface immobilized CD4 D1D2 (in words),CD4 D1D2,failed to inhibit
B1,KA,⍺4β7,2.76e+07 M⁻¹
same,ka,⍺4β7,38700 M⁻¹ s⁻¹
same,kd,⍺4β7,0.00141 s⁻¹
same,binding to ⍺4β7 (in words),⍺4β7 on RPMI8866 cells [4],failed to bind
same,inhibition of PE-conjugated D1D2-Ig⍺tp binding to ⍺4β7 (in words),⍺4β7 on RPMI8866 cells [5],inhibited D1D2-Ig⍺tp binding to ⍺4β7 in a dose dependent manner
